Measured values taken from patent US20040126819A1.

Molecular target: human wild type c-RET expressed in 3T3 fibroblasts (human) (UniProt P07949)
Experiment: cell-based or functional assay

Sequence of human wild type c-RET expressed in 3T3 fibroblasts (human) (P07949 29-1114): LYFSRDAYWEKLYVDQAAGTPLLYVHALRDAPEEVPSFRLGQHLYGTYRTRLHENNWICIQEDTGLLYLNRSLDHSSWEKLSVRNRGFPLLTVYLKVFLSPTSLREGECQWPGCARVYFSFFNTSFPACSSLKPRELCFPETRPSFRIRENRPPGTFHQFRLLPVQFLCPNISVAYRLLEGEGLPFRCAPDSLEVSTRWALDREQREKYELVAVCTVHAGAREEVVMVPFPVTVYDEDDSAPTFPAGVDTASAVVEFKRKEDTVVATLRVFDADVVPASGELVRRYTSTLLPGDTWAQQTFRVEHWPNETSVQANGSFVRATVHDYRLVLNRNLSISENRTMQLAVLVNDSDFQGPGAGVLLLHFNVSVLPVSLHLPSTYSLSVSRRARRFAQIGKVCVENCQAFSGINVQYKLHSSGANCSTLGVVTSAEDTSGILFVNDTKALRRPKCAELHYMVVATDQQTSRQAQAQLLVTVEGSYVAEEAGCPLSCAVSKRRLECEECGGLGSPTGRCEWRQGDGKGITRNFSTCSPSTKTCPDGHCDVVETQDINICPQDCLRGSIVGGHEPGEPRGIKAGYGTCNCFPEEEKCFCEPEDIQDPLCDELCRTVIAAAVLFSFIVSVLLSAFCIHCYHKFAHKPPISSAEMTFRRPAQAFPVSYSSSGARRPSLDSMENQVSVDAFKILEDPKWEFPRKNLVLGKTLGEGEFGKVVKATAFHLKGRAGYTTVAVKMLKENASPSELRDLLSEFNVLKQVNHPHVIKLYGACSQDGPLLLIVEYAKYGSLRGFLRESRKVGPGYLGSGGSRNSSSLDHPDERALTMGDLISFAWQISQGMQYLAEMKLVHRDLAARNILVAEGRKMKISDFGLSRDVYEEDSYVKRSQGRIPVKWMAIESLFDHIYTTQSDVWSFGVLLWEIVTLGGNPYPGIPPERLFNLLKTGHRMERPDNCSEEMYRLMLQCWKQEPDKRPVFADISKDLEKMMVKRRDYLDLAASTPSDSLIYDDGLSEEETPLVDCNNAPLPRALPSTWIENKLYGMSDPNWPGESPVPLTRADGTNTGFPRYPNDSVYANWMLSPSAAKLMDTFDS
Sequence of ^125I-GDNF (human GDNF from PeproTech EC Ltd. or rat GDNF from C. F. Ibanez) (ligand) (P39905 78-211): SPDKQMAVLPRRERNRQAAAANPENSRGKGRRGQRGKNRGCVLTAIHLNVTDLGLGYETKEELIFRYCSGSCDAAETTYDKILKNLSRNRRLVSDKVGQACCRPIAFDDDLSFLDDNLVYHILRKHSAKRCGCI

tyrosine phosphorylation of c-RET in c-ret-3T3 cells, time course at 50 ng/ml GDNF: 5 min
tyrosine phosphorylation of the 160 kD c-RET isoform in c-ret-3T3 cells, dose-response, 5 min: > 25 ng/mL
Substance: ^125I-GDNF (human GDNF from PeproTech EC Ltd. or rat GDNF from C. F. Ibanez) (ligand)
